B1: CPEB3 Ribozyme (parent)
chain: GGGGGCCACAGCAGAAGCGUUCACGUCGCGGCCCCUGUCAGAUUCUGGUGAAUCUGCGAAUUCUGCUGU

The variants in this data set derive from B1. The experiment in a line: self-cleavage, relative activity (ratio to wild type); higher = more cleavage; co-transcriptional.
Consider C7G U67G, for which the self-cleavage came to 0.75.
Turning to C7U C18G, the self-cleavage was 0.104.
The result for C7A U36A reads 0.127; that for A8G C57U, 0.303.
The same measure for C7G U38A: 0.264.
Turning to C7G U38G, the self-cleavage was found to be 0.068.
On to C7G U38C, for which the self-cleavage stood at 0.174.
The result for C7U C66A reads 0.8; that for C7U C66U, 0.982.
For the variant C7U A42G, the self-cleavage amounted to 0.908.
Turning to A8U C22A, the self-cleavage stood at 0.154.
As to C7U C29G, the self-cleavage is 0.314.
The result for C7U C29U reads 0.505; that for C7U C29A, 0.413.
For C7A A40G, the self-cleavage came to 0.416.
On to C7U A13U, for which the self-cleavage turned out to be 0.693.
Regarding C6U U38A, the self-cleavage stood at 0.916.
For the variant C7G A59C, the self-cleavage was found to be 0.148.
Consider C7G A59U, for which the self-cleavage came out at 0.167.
Consider C7U C57G, for which the self-cleavage turned out to be 0.155.
The result for A8G U43C reads 0.758; that for A8C G56U, 0.908; that for C7A A10U, 0.912.
Turning to A8C C35A, the self-cleavage stood at 0.374.
With C7U G25U, the self-cleavage turned out to be 0.089.
Consider A8C A42C, for which the self-cleavage turned out to be 0.992.
On to C7G G37U, for which the self-cleavage was determined as 0.179.
As to C7G G37C, the self-cleavage came out at 0.118.
For the variant C7G G37A, the self-cleavage amounted to 0.153.
As for C7U C63G, the self-cleavage was determined as 0.603.
Consider A8C C29U, for which the self-cleavage was 0.81.
Turning to A8C C29G, the self-cleavage turned out to be 0.0981.
As for C7A G47A, the self-cleavage was 0.612.
C7A G47C: the self-cleavage turned out to be 0.593.
For C7A G47U, the self-cleavage came out at 0.637.
The same measure for C7A U43A: 0.266; for C7A U43G: 0.373; for A8C C32A: 0.784.
As to A8U A10C, the self-cleavage came out at 1.03.
A8U A10G: the self-cleavage came out at 0.937.
C7A G56U: the self-cleavage was 0.357.
With A8G A23C, the self-cleavage worked out at 0.751.
For A8U A23C, the self-cleavage came out at 0.944.
The result for A8C U38A reads 0.897; that for A8C U38G, 0.245; that for C7U C35G, 0.28.
C7U C35A: the self-cleavage was determined as 0.194.
In the case of C7U C22U, the self-cleavage came out at 0.155.
The result for A8C A59C reads 0.725; that for A8G C35U, 0.808.
The same measure for C7U C24G: 0.225; for C7U C24U: 0.676.
As to C7G C24A, the self-cleavage is 0.0945.
Take C7A C12U: the self-cleavage amounted to 0.592.
Consider C7A U61A, for which the self-cleavage stood at 0.169.
In the case of C7U U26A, the self-cleavage is 0.597.
As to C7U U26G, the self-cleavage came to 0.762.
Turning to C7G U69A, the self-cleavage is 0.728.
On to C7U U64G, for which the self-cleavage was determined as 0.899.
The same measure for C7A A13C: 0.277.
In the case of A8C U46G, the self-cleavage worked out at 0.982.
For C7G U62A, the self-cleavage turned out to be 0.18.
Take C7U U46A: the self-cleavage turned out to be 0.985.
In the case of C7U U46G, the self-cleavage turned out to be 0.934.
Consider C7U G47U, for which the self-cleavage worked out at 1.02.
C7U U21C: the self-cleavage is 0.688.
C7G G41A: the self-cleavage worked out at 0.131.
C7G G41C: the self-cleavage amounted to 0.121.
Consider C7A A51U, for which the self-cleavage came to 0.402.
Consider C7G G19C, for which the self-cleavage was found to be 0.106.
As for C7A G50C, the self-cleavage is 0.545.
Turning to C7G U36A, the self-cleavage came out at 0.0233.
Consider C7G U43C, for which the self-cleavage came to 0.231.
As to C7U U55C, the self-cleavage was determined as 0.744.
C7U U55G: the self-cleavage is 0.706.
The result for C7G U46G reads 0.455; that for A8G G50A, 0.868.
The same measure for A8G G50U: 0.877; for A8C A13U: 0.849.
Regarding A8C A13G, the self-cleavage is 0.987.
Turning to A8C G65C, the self-cleavage was found to be 0.635.
Take C7U A52U: the self-cleavage was 0.91.
As to C7U A52G, the self-cleavage turned out to be 0.957.
A8G U61A: the self-cleavage came out at 0.379.
As to A8G U53C, the self-cleavage came to 0.31.
As for A8G U53A, the self-cleavage is 0.591.
As to C7U A16G, the self-cleavage was 0.908.
As to A8U C29A, the self-cleavage was determined as 0.269.
Turning to A8C C45G, the self-cleavage was 0.984.
As for A8U A13U, the self-cleavage is 0.805.
For C7A C22A, the self-cleavage is 0.0549.
The same measure for C7A C22U: 0.139.
For A8G U21A, the self-cleavage worked out at 0.833.
Consider A8G U21G, for which the self-cleavage was 0.199.
Regarding C7U G50A, the self-cleavage came to 0.996.
With C7A G37U, the self-cleavage is 0.0728.
Turning to C7A G37C, the self-cleavage was determined as 0.122.
In the case of C7A G37A, the self-cleavage worked out at 0.133.
Take A8G A13G: the self-cleavage came to 0.192.
With A8G A13C, the self-cleavage worked out at 0.126.
Consider C7A C32A, for which the self-cleavage worked out at 0.165.
With C7G C22A, the self-cleavage is 0.104.
Turning to C7G C22G, the self-cleavage is 0.0908.
As to A8G G47A, the self-cleavage was found to be 1.
In the case of C7U G48C, the self-cleavage was determined as 0.949.
As for A8G G19A, the self-cleavage turned out to be 0.0612.
As to A8U A59G, the self-cleavage is 1.
The result for A8C U64A reads 0.947; that for A8C C63G, 0.734.
In the case of C7A A59C, the self-cleavage stood at 0.239.
As for A8G C45G, the self-cleavage amounted to 0.801.
Consider C7U C32U, for which the self-cleavage is 0.984.
With C7A U38G, the self-cleavage is 0.0677.
C7A A52G: the self-cleavage is 0.515.
The result for C7G G56U reads 0.177; that for A8G A16C, 0.0896; that for A8G A16G, 0.458.
On to C7A U53C, for which the self-cleavage stood at 0.274.
Take C7A U53A: the self-cleavage was found to be 0.321.
For C7G G17C, the self-cleavage is 0.112.
Turning to C7G G17U, the self-cleavage was 0.0489.
As to A8U C9A, the self-cleavage was 1.03.
The result for C7G G28C reads 0.106; that for C7G G28A, 0.0296.
For the variant A8U C33A, the self-cleavage was 0.935.
As to A8U C33U, the self-cleavage is 0.996.
Regarding A8U C63G, the self-cleavage turned out to be 0.782.
The result for A8U C63U reads 1.03.
As to A8G U55A, the self-cleavage was 0.269.
As for A8C U67C, the self-cleavage came out at 1.
The same measure for A8C U67G: 0.975; for C7G U49C: 0.491; for C7G U49A: 0.444.
On to A8G C32G, for which the self-cleavage amounted to 0.517.
With A8G C32U, the self-cleavage came out at 0.877.
With C7G C18A, the self-cleavage worked out at 0.0277.
In the case of A8C A15G, the self-cleavage is 0.995.
Consider C6U U67C, for which the self-cleavage came to 1.02.
The result for C6U U67A reads 0.995.
The same measure for A8C G31A: 0.888; for C7U U20G: 0.17; for C7A G19A: 0.14.
Take C7U U43G: the self-cleavage was 0.757.
In the case of C7U C34U, the self-cleavage came out at 0.969.
Take C7U C34G: the self-cleavage worked out at 0.287.
The result for C6U U44G reads 1.01; that for C7G C12G, 0.223.
As to C7G C12A, the self-cleavage amounted to 0.0557.
For C7G C12U, the self-cleavage came out at 0.383.
As to A8C U61A, the self-cleavage was 0.913.
Consider C7A C57G, for which the self-cleavage was 0.179.
As for A8U C12U, the self-cleavage was 1.05.
The same measure for A8C U69C: 1.07; for A8G G31C: 0.0995.
The result for A8G C34A reads 0.734; that for A8G C34U, 0.952; that for C7G C9U, 0.844.
Turning to A8U C35G, the self-cleavage stood at 0.435.
Turning to C7G G14A, the self-cleavage stood at 0.0844.
The result for C7A G58C reads 0.464; that for C6U U43C, 0.902; that for C6U U43G, 0.815.
For the variant C7U G68U, the self-cleavage was 0.965.
The same measure for C7A C45U: 0.566.
The result for C7A C45A reads 0.485.
Turning to C7U U53C, the self-cleavage worked out at 0.784.
A8C C12A: the self-cleavage turned out to be 0.637.

Values taken from the RNAGym collection of RNA variant scans (doi:10.7554/elife.80360).
